How the values were obtained:
Experiment in all cases: MTAP substrate assay, coupled spectrophotometric (adenine, xanthine oxidase)
Type in all cases: biochemical, human
Conditions in all cases: other: substrate of MTAP, 37° C.
[1] = substrate: Cc1cccc(SC[C@H]2O[C@@H](n3cnc4c(N)ncnc43)[C@H](O)[C@@H]2O)c1
Description: (§1) An enzymatic assay to determine the activity of MTAP against a given substrate was performed. Human MTAP containing an N-terminal six-histidine tag was expressed in E. coli BL21 DE3 cells. The protein was purified to homogeneity by Ni2+ affinity chromatography. Enzymatic activity was measured using a coupled spectrophotometric assay designed to monitor the reaction product adenine (Savarese, T. M., Crabtree, G. W., and Parks, R. E. Jr., (1980) Biochem. Pharmacol. 30, 189-199). Various concentrations of the indicated 5′-deoxymethylthio adenosine (MTA) or substrate were incubated in assay buffer (40 mM potassium phosphate buffer, 1 mM, and DTT 0.8 units/ml xanthine oxidase coupling enzyme) for 5 minutes at 37° C. The reaction was initiated by the addition of MTAP. The exact concentration of enzyme used varied for each substrate tested and ranged from 2 nM to 500 nM. Activity as a function of enzyme concentration was determined for each substrate tested to ensure that the appropriate enzyme concentration was used. Activity was detected by continuous monitoring of absorbance at 305 nm for 10 minutes (ΔE=15,500 M^−1).
(§2) Library compounds (10 and 50 uM) were tested using the assay described above with 2 nM MTAP enzyme. The resultant initial velocities are reported as a percentage of the initial velocity observed when MTA is the substrate. MTA controls, 10 and 50 uM concentrations, were run on each plate alongside the library compounds.

[2] = substrate: Nc1ncnc2c1ncn2[C@@H]1O[C@H](CSCc2ccc(Cl)cc2)[C@@H](O)[C@H]1O
Description: as §1, §2

[3] = substrate: Nc1ncnc2c1ncn2[C@@H]1O[C@H](CSCc2ccccc2)[C@@H](O)[C@H]1O
Description: as §1, §2

[4] = substrate: CSC[C@@H]1C[C@@H](O)[C@H](n2cnc3c(N)ncnc32)O1
Description: as §1, §2

[5] = substrate: Nc1ncnc2c1ncn2[C@@H]1O[C@H](CSc2ncccn2)[C@@H](O)[C@H]1O
Description: as §1, §2

[6] = substrate: CCSC[C@H]1O[C@@H](n2cnc3c(N)ncnc32)[C@H](O)[C@@H]1O
Description: as §1, §2

[7] = substrate: Nc1ncnc2c1ncn2[C@@H]1O[C@H](CSc2ccc3ccccc3n2)[C@@H](O)[C@H]1O
Description: as §1, §2

[8] = substrate: Nc1ncnc2c1ncn2[C@@H]1O[C@H](C(=O)NCCO)[C@@H](O)[C@H]1O
Description: as §1, §2

[9] = substrate: CSC[C@H]1O[C@@H](n2cnc3c(N)ncnc32)[C@@H](O)[C@@H]1O
Description: as §1, §2

[10] = substrate: CCOC(=O)CC[C@H]1O[C@@H](n2cnc3c(N)ncnc32)[C@H](O)[C@@H]1O
Description: as §1, §2

[11] = substrate: Nc1ncnc2c1ncn2[C@@H]1O[C@H](CNCCO)[C@@H](O)[C@H]1O
Description: as §1, §2

[12] = substrate: COc1ccc(OC[C@H]2O[C@@H](n3cnc4c(N)ncnc43)[C@H](O)[C@@H]2O)cc1
Description: as §1, §2

[13] = substrate: CSC[C@H]1O[C@@H](n2cnc3c(N)ncnc32)[C@H](O)[C@@H]1O
Description: as §1, §2

[14] = substrate: Nc1ncnc2c1ncn2[C@@H]1O[C@H](CNCc2ccc(F)cc2)[C@@H](O)[C@H]1O
Description: as §1, §2

[15] = substrate: COc1ccccc1SC[C@H]1O[C@@H](n2cnc3c(N)ncnc32)[C@H](O)[C@@H]1O
Description: as §1, §2

[16] = substrate: Nc1ncnc2c1ncn2[C@@H]1O[C@H](CSCCc2ccccn2)[C@@H](O)[C@H]1O
Description: as §1, §2

[17] = substrate: Nc1ncnc2c1ncn2[C@@H]1O[C@H](CSCCO)[C@@H](O)[C@H]1O
Description: as §1, §2

[18] = substrate: CCOC(=O)CCSC[C@H]1O[C@@H](n2cnc3c(N)ncnc32)[C@H](O)[C@@H]1O
Description: as §1, §2

[19] = substrate: Cc1ccccc1CSC[C@H]1O[C@@H](n2cnc3c(N)ncnc32)[C@H](O)[C@@H]1O
Description: as §1, §2

B1: Human MTAP (Homo sapiens) (protein)
chain: MASGTTTTAVKIGIIGGTGLDDPEILEGRTEKYVDTPFGKPSDALILGKIKNVDCVLLARHGRQHTIMPSKVNYQANIWALKEEGCTHVIVTTACGSLREEIQPGDIVIIDQFIDRTTMRPQSFYDGSHSCARGVCHIPMAEPFCPKTREVLIETAKKLGLRCHSKGTMVTIEGPRFSSRAESFMFRTWGADVINMTTVPEVVLAKEAGICYASIAMATDYDCWKEHEEAVSVDRVLKTLKENANKAKSLLLTTIPQIGSTEWSETLHNLKNMAQFSVLLPRH
notes: six-histidine tag (His6) (N); made in house; host or cells: E. coli BL21 DE3
Work on B1 yielded a Km [1] of 2 µM, a kcat [1] of 2.4 s⁻¹ and a Km [2] of 3.9 µM. For the same protein, the kcat [2] was 3.3 s⁻¹, the Km [3] was 4.65 µM and the kcat [3] was 2.5 s⁻¹. The Km [4] was 3.9 µM, the kcat [4] was 0.004 s⁻¹ and the Km [5] was 7 µM. For the same protein, the kcat [5] was 4.1 s⁻¹, the Km [6] was 1.8 µM and the kcat [6] was 2.9 s⁻¹. The Km [7] was 6.9 µM, the kcat [7] was 3.16 s⁻¹ and the Km [8] was 1000 µM. It also gave a kcat [8] of 3 s⁻¹, a Km [9] of 106 µM and a kcat [9] of 0.006 s⁻¹. It also gave a Km [10] of 5.95 µM, a kcat [10] of 4.12 s⁻¹ and a Km [11] of 758 µM. For the same protein, the kcat [11] was 0.029 s⁻¹, the Km [12] was 10 µM and the kcat [12] was 0.54 s⁻¹. It also gave a Km [13] of 2.233 µM, a kcat [13] of 3.97 s⁻¹ and a Km [14] of 145 µM. The kcat [14] was 0.089 s⁻¹, the Km [15] was 13 µM and the kcat [15] was 0.13 s⁻¹. The Km [16] was 10.2 µM, the kcat [16] was 1.01 s⁻¹ and the Km [17] was 25 µM. The kcat [17] was 1.46 s⁻¹, the Km [18] was 4.3 µM and the kcat [18] was 1.54 s⁻¹. For the same protein, the Km [19] was 10 µM and the kcat [19] was 0.79 s⁻¹.

Reference: US20040043959A1, “Combination therapies for treating methylthioadenosine phosphorylase deficient cells” (priority 2002, published 2004)
